Values joined by “and” are separate entries in the source; they are usually repeats but may differ in a detail not shown here. Equal entries are not always repeated.
Details: whole UniProt chain shown
[1] = Bos taurus, pH 2, 35 °C, Urea, NMR, Unknown, reversible: no
[2] = Bos taurus, pH 2.2, 25 °C, GdnHCl, CD, Sodium cacodylate 50 mM, NaCl 50 mM
[3] = Bos taurus, pH 3, Thermal, DSC, Tris-HCl 10 mM
[4] = Bos taurus, pH 4.2, Thermal, DSC, Tris-HCl 10 mM
[5] = Bos taurus, pH 5.2, Thermal, DSC, Tris-HCl 10 mM
[6] = Bos taurus, pH 6.2, Thermal, DSC, citrate 10 mM
[7] = Bos taurus, pH 6.3, 25 °C, GdnHCl, CD, Sodium acetate 100 mM, CaCl2 2 mM, transition: 3
[8] = Bos taurus, pH 6.3, 25 °C, GdnHCl, CD, Sodium acetate 100 mM, CaCl2 2 mM
[9] = Bos taurus, pH 6.3, 25 °C, Thermal, CD, imidazole-HCl 40 mM
[10] = Bos taurus, pH 7, 4.5 °C, GdnHCl, CD, cacodylate 50 mM, NaCl 0.1 M
[11] = Bos taurus, pH 7, 25 °C, GdnHCl, CD, sodium cacodylate 50 mM, NaCl 50 mM
[12] = Bos taurus, pH 7, Thermal, CD, C2H6AsNaO2 50 mM, NaCl 50 mM
[13] = Bos taurus, pH 7.5, Thermal, DSC, Tris-HCl 10 mM, CaCl2 260 micro M
[14] = Bos taurus, pH 8, 25 °C, GdnHCl, CD, Tris-HCl 20 mM
[15] = Bos taurus, pH 8, 25 °C, Thermal, CD, borate 10 mM, NaCl 0.01-1.0 M
[16] = Bos taurus, pH 8, 25 °C, Thermal, DSC, Tris-HCl 10 mM, reversible: yes
[17] = Bos taurus, pH 8, Thermal, DSC, Tris-HCl 5 mM
[18] = Bos taurus, pH 8, Thermal, DSC, Tris-HCl 10mM, reversible: yes
[19] = Bos taurus, pH 8, Thermal, DSC, borate 10 mM, NaCl 0.2 M, reversible: yes (>95%)
[20] = Bacillus subtilis (strain 168), pH 7, Thermal, CD, Potassium phosphate 50 mM, reversible: yes

B1: Beta-glucanase wild type, K0A689 (protein)
chain: MKRVLLILVTGLFMSLFAVTSTASAQTGGSFFDPFNGYNSGFWQKADGYSNGNMFNCTWRANNVSMTSLGEMRLALTSPSYNKFDCGENRSVQTYGYGLYEVRMKPAKNTGIVSSFFTYTGPTDGTPWDEIDIEFLGKDTTKVQFNYYTNGAGNHEKIVDLGFDAANAYHTYAFDWQPNSIKWYVDGQLKHTATNQIPTTPGKIMMNLWNGTGVDEWLGSYNGVNPLYAHYDWVRYTKK
Q: Which Tm (Bacillus tequilensis, pH 6.5, Thermal, Activity, phosphate buffer) does the source give for B1 here?
A: The Tm was 62 °C.

B2: wild type, B8YLY0 (protein)
chain: MKKVLMAFIICLSLILSVLAAPPSGAKAESVHNPVVLVHGISGASYNFFAIKNYLISQGWQSNKLYAIDFYDKTGNNLNNGPQLASYVDRVLKETGAKKVDIVAHSMGGANTLYYIKYLGGGNKIQNVVTLGGANGLVSSTALPGTDPNQKILYTSIYSLNDQIVINSLSRLQGARNIQLYGIGHIGLLSNSQVNGYIKEGLNGGGLNTN
Q: With B2 as the protein, how does the “denaturant midpoint (higher = more stable)” value (“denaturant midpoint” for short) (Bacillus subtilis, pH 0.8, 25 °C, GdnHCl, CD, KCl-HCl 20 mM, reversible: No) read?
A: The value was 3 M.

Q: And the “denaturant midpoint” value (Bacillus subtilis, pH 0.8, 25 °C, GdnHCl, Fluorescence, KCl-HCl 20 mM, reversible: No)?
A: Its value is 2.6 M.

Q: What about the Tm (Bacillus subtilis, pH 0.8, Thermal, CD, KCl-HCl 20 mM, reversible: No) of the same protein?
A: The Tm was 75 °C.

Q: What about the Tm (Bacillus subtilis, pH 4, Thermal, Fluorescence, Sodium acetate 50 mM, reversible: Yes) of the same protein?
A: Its Tm is 45 °C.

Q: What about the unfolding free energy (Bacillus subtilis, pH 5.8, 25 °C, Urea, Fluorescence, NaAc 20 mM, reversible: Yes) of the same protein?
A: Its unfolding free energy is 11.2 kcal/mol.

Q: What about the unfolding free energy (Bacillus subtilis, pH 5.8, 25 °C, Urea, NMR, NaAc 20 mM, reversible: Yes) of the same protein?
A: The unfolding free energy was 9.56 kcal/mol.

Q: And the Tm (Bacillus subtilis, pH 5.8, Thermal, DSC, NaAc 20 mM, reversible: No)?
A: The Tm was 53 °C.

Q: What about the Tm (Bacillus subtilis, pH 6, Thermal, CD, phosphate buffer 20 mM) of the same protein?
A: Its Tm is 54.6 °C.

Q: And the “denaturant midpoint” value (Bacillus subtilis, pH 7, 25 °C, GdnHCl, CD, Sodium phosphate 20 mM, reversible: Yes)?
A: Its value is 1 M.

Q: What about the “denaturant midpoint” value (Bacillus subtilis, pH 7, 25 °C, GdnHCl, Fluorescence, Sodium phosphate 20 mM, reversible: Yes) of the same protein?
A: The value was 0.8 M.

Q: And the unfolding free energy (Bacillus subtilis, pH 7, 25 °C, Urea, Fluorescence, Sodium acetate 50 mM, reversible: Yes)?
A: Its unfolding free energy is 11.4 kcal/mol.

Q: And the Tm (Bacillus subtilis, pH 7, Thermal, CD, Sodium phosphate 20 mM, reversible: No)?
A: The Tm was 47 °C.

Q: What about the unfolding free energy (Bacillus subtilis, pH 7.2, 25 °C, GdnHCl, CD, Sodium phosphate 50 mM, reversible: Yes) of the same protein?
A: Its unfolding free energy is 11.4 kcal/mol and 13.8 kcal/mol.

B3: Alpha-lactalbumin wild type, P00711 (protein)
chain: MMSFVSLLLVGILFHATQAEQLTKCEVFRELKDLKGYGGVSLPEWVCTTFHTSGYDTQAIVQNNDSTEYGLFQINNKIWCKDDQNPHSSNICNISCDKFLDDDLTDDIMCVKKILDKVGINYWLAHKALCSEKLDQWLCEKL
Q: Which denaturant m value [1] does the source give for B3 here?
A: The denaturant m value was 0.33 kcal/mol/M.

Q: What about the “denaturant midpoint” value [1] of the same protein?
A: Its value is 4.45 M.

Q: And the unfolding free energy [1]?
A: Its unfolding free energy is 1.46 kcal/mol.

Q: And the denaturant m value [2]?
A: Its denaturant m value is 0.76 kcal/mol/M.

Q: And the “denaturant midpoint” value [2]?
A: The value was 3.16 M.

Q: And the unfolding free energy [2]?
A: Its unfolding free energy is 2.41 kcal/mol.

Q: What about the Tm [3] of the same protein?
A: The Tm was 29.6 °C.

Q: What about the “heat capacity change of unfolding” value [3] of the same protein?
A: Its value is 0.93 kcal/mol/K.

Q: And the “unfolding enthalpy (calorimetric)” value [3]?
A: Its value is 36.1 kcal/mol.

Q: What about the Tm [4] of the same protein?
A: Its Tm is 56.9 °C.

Q: And the “heat capacity change of unfolding” value [4]?
A: The value was 1.17 kcal/mol/K.

Q: And the “unfolding enthalpy (calorimetric)” value [4]?
A: The value was 64.5 kcal/mol.

Q: And the Tm [5]?
A: Its Tm is 62.8 °C.

Q: And the “heat capacity change of unfolding” value [5]?
A: The value was 1.26 kcal/mol/K.

Q: And the “unfolding enthalpy (calorimetric)” value [5]?
A: The value was 71.9 kcal/mol.

Q: What about the Tm [6] of the same protein?
A: Its Tm is 51.2 °C.

Q: And the “heat capacity change of unfolding” value [6]?
A: The value was 1.61 kcal/mol/K.

Q: And the “unfolding enthalpy (calorimetric)” value [6]?
A: The value was 59.1 kcal/mol.

Q: And the “unfolding enthalpy (van 't Hoff)” value [6]?
A: The value was 61.5 kcal/mol.

Q: And the denaturant m value [7]?
A: Its denaturant m value is 1.85 kcal/mol/M.

Q: What about the unfolding free energy [7] of the same protein?
A: Its unfolding free energy is 4.61 kcal/mol.

Q: And the denaturant m value [8]?
A: Its denaturant m value is 2.6 kcal/mol/M.

Q: What about the unfolding free energy [8] of the same protein?
A: Its unfolding free energy is 6.21 kcal/mol.

Q: What about the “heat capacity change of unfolding” value [9] of the same protein?
A: The value was 0.96 kcal/mol/K.

Q: And the “unfolding enthalpy (van 't Hoff)” value [9]?
A: Its value is 31.1 kcal/mol.

Q: What about the unfolding free energy (Bos taurus, pH 6.65, 25 °C, GdnHCl, CD, potassium phosphate 0.01-0.03 M, KCl 0.1 M, reversible: yes) of the same protein?
A: The unfolding free energy was 6.5 kcal/mol.

Q: And the “heat capacity change of unfolding” value (Bos taurus, pH 6.8, 25 °C, Thermal, CD, phosphate 10-20 mM, KCl 0.1 M)?
A: The value was 1.49 kcal/mol/K.

Q: What about the denaturant m value [10] of the same protein?
A: Its denaturant m value is 2.27 kcal/mol/M.

Q: And the unfolding free energy [10]?
A: The unfolding free energy was 3.66 kcal/mol.

Q: What about the denaturant m value (Bos taurus, pH 7, 25 °C, GdnHCl, CD, sodium cacodylate 50 mM, NaCl 50 mM, transition: 3) of the same protein?
A: Its denaturant m value is 1.79 kcal/mol/M and 0.64 kcal/mol/M.

Q: What about the denaturant m value [11] of the same protein?
A: Its denaturant m value is 2.43 kcal/mol/M.

Q: What about the unfolding free energy [11] of the same protein?
A: Its unfolding free energy is 7.29 kcal/mol.

Q: And the Tm [12]?
A: Its Tm is 25 °C.

Q: What about the “heat capacity change of unfolding” value [12] of the same protein?
A: The value was 1.1 kcal/mol/K.

Q: What about the “unfolding enthalpy (van 't Hoff)” value [12] of the same protein?
A: The value was 38 kcal/mol.

Q: And the Tm [13]?
A: Its Tm is 64.2 °C.

Q: And the “unfolding enthalpy (calorimetric)” value [13]?
A: The value was 72.2 kcal/mol.

Q: And the denaturant m value [14]?
A: Its denaturant m value is 0.84 kcal/mol/M.

Q: What about the “denaturant midpoint” value [14] of the same protein?
A: The value was 2.46 M.

Q: And the unfolding free energy [14]?
A: Its unfolding free energy is 2.07 kcal/mol.

Q: And the “heat capacity change of unfolding” value [15]?
A: The value was 1.18 kcal/mol/K.

Q: And the “unfolding enthalpy (van 't Hoff)” value [15]?
A: Its value is 44.7 kcal/mol.

Q: And the “heat capacity change of unfolding” value [16]?
A: Its value is 1.03 kcal/mol/K.

Q: What about the unfolding free energy [16] of the same protein?
A: Its unfolding free energy is 5.02 kcal/mol and 3.59 kcal/mol.

Q: And the Tm [17]?
A: Its Tm is 28.2 °C.

Q: What about the “heat capacity change of unfolding” value [17] of the same protein?
A: Its value is 1.48 kcal/mol/K.

Q: What about the “unfolding enthalpy (calorimetric)” value [17] of the same protein?
A: The value was 35.2 kcal/mol.

Q: What about the Tm [18] of the same protein?
A: Its Tm is 55.2 °C.

Q: And the “unfolding enthalpy (calorimetric)” value [18]?
A: The value was 55 kcal/mol.

Q: And the Tm [19]?
A: Its Tm is 71.3 °C.

Q: And the “heat capacity change of unfolding” value [19]?
A: The value was 1.6 kcal/mol/K.

Q: What about the “unfolding enthalpy (calorimetric)” value [19] of the same protein?
A: The value was 80 kcal/mol.

Q: What about the “unfolding enthalpy (van 't Hoff)” value [19] of the same protein?
A: Its value is 84 kcal/mol.

B4: Phosphocarrier protein HPr wild type, P08877 (protein)
chain: MAQKTFKVTADSGIHARPATVLVQTASKYDADVNLEYNGKTVNLKSIMGVMSLGIAKGAEITISASGADENDALNALEETMKSEGLGE
Q: For B4, which “denaturant midpoint” value (Bacillus subtilis (strain 168), pH 7, 30 °C, Urea, CD, Potassium phosphate 50 mM, reversible: yes) is on record?
A: The value was 3.93 M.

Q: And the Tm [20]?
A: The Tm was 73.6 °C and 77.5 °C.

Q: What about the “unfolding enthalpy (van 't Hoff)” value [20] of the same protein?
A: The value was 59 kcal/mol and 63 kcal/mol.
